According to patent US20240052052A1 (ANTENGENE BIOLOGICS, published 2024):
Where a chain is given by its changes, count along the chain named.

B1: 81A1F8 (antibody, V domains shown)
VH: EVQLQQSGPELVKPGASVKISCKATGYLFTGYYMNWVKQSPEKSLEWIGEINPNTGDTNNNQKFKAKATMTVDRSSSTAYMQLKRLTSEDSAVYYCVRRDYGTSLDYWGQGTTLTVSS
VL: DVQITQSPSYLAASPGETITINCRASKSINKYLAWYQEKPGKTNKLLIHSGSTLQSGIPSRFSGSRSGTDFTLTISNLEPEDFAMYYCQQHNEYPITFGAGTKLELK
notes: mouse monoclonal antibody
B2: 56A7E3 (antibody, V domains shown)
VH: EVQLQQSGPELVKPGASVKIPCKASGYTFTAYNMDWVKQSHGMSLEWIGDINPINGGTIYNQNFEGKATLTVDKSSSTAYLELRSLTSEDTAVYYCARRGSYYYGSSHYALDFWGQGTSVSVSS
VL: DIQMTQITSSLSASLGDRVTITCRASQDISNYLNWYQQKPDGTVKLLIYYTSRLLSGVPSRFSGSGSGTDYSLTISNLEQEDIATYFCQQDHTLPRTFGGGTKLEIR
notes: mouse monoclonal antibody
B3: 58F10-1F6 (antibody, V domains shown)
VH: EVQLRQSGPELVKPGAAVKISCKASGYSFTGYHMNWVKQSPEKSLEWIGEINPITSGITYNQIFKAKATLTVDKSSSTAYLQLKSLTSEDSAVYYCTRRDYGTSLDYWGQGTTLTVSS
VL: B2 VL
notes: mouse monoclonal antibody
B4: 71A4F12 (antibody, V domains shown)
VH: B2 VH with I54N, G57D, I59V, E65K, L81M
VL: B2 VL with D17N, T22S, S30R, H92N, T93S, K103R
notes: mouse monoclonal antibody
B5: 100F2E3 (antibody, V domains shown)
VH: QVQLQQPGAELVRPGSSVKLSCKTSDYTFTSYWMDWVKQRPGQGLEWIGNIYPSDSKTHSNQKFRDKATLTVDKSSSTAYMQLNSLTSEDSAVYYCARRGGYYGYAMDYWGQGTSVTVSS
VL: DIVMTQSPSSLSVSAGEKVTMSCKSSQSLLNSGNQDNYLAWYQQKPGQPPKLLIYGASIRESGVPDRFTGSGSGTDFTLTISSVQAEDLAVYYCQNDHSYPYTFGGGTKLEIK
notes: mouse monoclonal antibody
B6: 33E7E12 (antibody, V domains shown)
VH: EVKLEESGGGLVQPGGSMKLSCFVSGFTFSNSWMNWVRQSPEKGLEWVAQIQLKSDNYATRYVESVRGRFIISRDDSKSSVSLQMNNLRTEDTGIYYCSSGTDYWGQGTTLTVSS
VL: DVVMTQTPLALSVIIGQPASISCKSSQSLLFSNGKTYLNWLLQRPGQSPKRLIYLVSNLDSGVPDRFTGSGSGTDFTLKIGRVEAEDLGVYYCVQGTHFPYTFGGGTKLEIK
notes: mouse monoclonal antibody

Experiments:
human CD24 [1] = target: T1, human CD24 (human, UniProt P25063 27-59, heavily glycosylated, GPI-anchored (as described in the background)); test: FACS, 293F-hCD24 cells
T1 construct: whole, on cells; Target of all cell-based FACS assays; also called hCD24; Cluster of differentiation 24
T1 chain (looked up): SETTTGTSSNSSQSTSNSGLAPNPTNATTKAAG
Procedure: (§1) Screening & Expansion: The subcloning plates were screened by Acumen assay and the subclones with good binding ability were expanded to 24-wells for confirmation tests. The specificity and cross-reactivity of these subclones were confirmed with FACs analysis. […] Fluorescent dye-conjugated secondary antibody was used to detect the binding of the primary antibody with the cells. Median fluorescence intensity (MFI) was measured by FACs analysis.

human CD24 [2] = target: T1, human CD24; test: FACS, 5637 cells
Procedure: (§2) Sequences of some of antibodies from Table 1 were selected to generate and produce human IgG4 chimeric antibodies. […] The protocol for FACs analysis is described as follows: [0536] a. Digested cells using TrypLE™ Express Enzyme (IX); Centrifuged the harvested cells at 400 g for 5 min and discarding the supernatant. [0537] b. Washed the cells 2 times with cold FACS buffer by centrifuging at 400 g for 5 min and discarding the supernatant. [0538] c. […] Incubate at […] for 1 h. [0539] d. Washed the cells twice by using the condition in step b. Resuspended the cells with 100 μl/well diluted 2nd antibody, incubated at 4 degree for 1 h in the dark. [0540] e. Washed the cells twice by using the condition in step b. Resuspended the cells with 100 μl/well cold FACS buffer. Kept the cells in dark for FACS analysis.

human CD24 [3] = target: T1, human CD24; test: FACS, MDA-MB-468 cells
Procedure: as §2

human CD24 [4] = target: T1, human CD24; test: FACS, MCF7 cells
Procedure: as §2

human CD24 [5] = target: T1, human CD24; test: FACS, CHOK1-hCD24 cells
Procedure: as §2

human CD24 [6] = target: T1, human CD24; test: FACS, MCF7 cells
Procedure: as §1

human CD24 [7] = target: T1, human CD24; test: FACS, HT-29 cells
Procedure: as §2

human CD24 [8] = target: T1, human CD24; test: FACS, A549 cells
Procedure: as §2

human CD24 [9] = target: T1, human CD24; test: FACS, Nalm1 cells
Procedure: as §2

human CD24 [10] = target: T1, human CD24; test: FACS, Nalm1 cells
Procedure: as §1

human CD24 [11] = target: T1, human CD24; test: FACS, H1975 cells
Procedure: as §2

human CD24 [12] = target: T1, human CD24; test: FACS, 293F-hCD24 cells
Procedure: as §2

human CD24 [13] = target: T1, human CD24; test: FACS, 5637 cells
Procedure: as §1

human CD24 [14] = target: T1, human CD24; test: FACS, H1975 cells
Procedure: as §1

Binder | FACS MFI (human CD24 [1]) | EC50 (human CD24 [2]) | EC50 (human CD24 [3]) | FACS MFI (human CD24 [3]) | EC50 (human CD24 [4]) | EC50 (human CD24 [5]) | Max MFI (human CD24 [5]) | FACS MFI (human CD24 [6]) | EC50 (human CD24 [7]) | Max MFI (human CD24 [7]) | EC50 (human CD24 [8]) | Max MFI (human CD24 [8]) | EC50 (human CD24 [9]) | Max MFI (human CD24 [9]) | FACS MFI (human CD24 [10]) | EC50 (human CD24 [11]) | EC50 (human CD24 [12]) | Max MFI (human CD24 [12]) | FACS MFI (human CD24 [13]) | FACS MFI (human CD24 [14]) | further results
B1 | 10300 | 3.31 nM | 5.23 nM | 24900 | 3 nM | 1.52 nM | 45900 | 11500 | 2.93 nM | 3050 | 2.37 nM | 8660 | 1.9 nM | 24800 | 24800 | 2.03 nM | 1.7 nM | 10300 | 22200 | 10600 | –
B2 | 26400 | 31.6 nM | 16.7 nM | 15300 | 81.7 nM | 4.85 nM | 36700 | 9190 | 18.1 nM | 1460 | 92.4 nM | 3320 | 20.9 nM | 74600 | 74600 | 93.1 nM | 7.52 nM | 26400 | 18500 | 2190 | –
B3 | 7420 | 22.4 nM | 38.9 nM | 49800 | 43.4 nM | 9.7 nM | 28100 | 17400 | 10.8 nM | 4900 | 12.6 nM | 12600 | 8.72 nM | 60300 | 20900 | 53.1 nM | 24.1 nM | 58200 | 34200 | 17500 | –
B4 | 7350 | 39.7 nM | 11.7 nM | 32500 | 121 nM | 1.72 nM | 28800 | 2420 | 5.46 nM | 4780 | 1.97 nM | 4410 | 6.28 nM | 45000 | 45000 | 71.9 nM | 6.74 nM | 39400 | 18600 | 7200 | Max MFI (human CD24 [4]): 12600
B5 | 44100 | 9.47 nM | 19.6 nM | 44000 | 8.08 nM | 1.71 nM | 22300 | 7160 | 9.55 nM | 2420 | 6.58 nM | 8670 | 8.88 nM | 58800 | 58800 | 10 nM | 11.4 nM | 44100 | 22100 | 6900 | –
B6 | 24200 | 4.37 nM | 3.45 nM | 10900 | 2.38 nM | 1.86 nM | 24100 | 5410 | 3.4 nM | 2450 | – | – | 6.2 nM | 45500 | 45500 | 8.15 nM | 2.4 nM | 24200 | 14100 | 6110 | –
